Reference: IntAct's records for PubMed 23518348

B1: Androgen receptor (Homo sapiens), P10275 (parent)
chain: MEVQLGLGRVYPRPPSKTYRGAFQNLFQSVREVIQNPGPRHPEAASAAPPGASLLLLQQQQQQQQQQQQQQQQQQQQQQQETSPRQQQQQQGEDGSPQAHRRGPTGYLVLDEEQQPSQPQSALECHPERGCVPEPGAAVAASKGLPQQLPAPPDEDDSAAPSTLSLLGPTFPGLSSCSADLKDILSEASTMQLLQQQQQEAVSEGSSSGRAREASGAPTSSKDNYLGGTSTISDNAKELCKAVSVSMGLGVEALEHLSPGEQLRGDCMYAPLLGVPPAVRPTPCAPLAECKGSLLDDSAGKSTEDTAEYSPFKGGYTKGLEGESLGCSGSAAAGSSGTLELPSTLSLYKSGALDEAAAYQSRDYYNFPLALAGPPPPPPPPHPHARIKLENPLDYGSAWAAAAAQCRYGDLASLHGAGAAGPGSGSPSAAASSSWHTLFTAEEGQLYGPCGGGGGGGGGGGGGGGGGGGGGGGEAGAVAPYGYTRPPQGLAGQESDFTAPDVWYPGGMVSRVPYPSPTCVKSEMGPWMDSYSGPYGDMRLETARDHVLPIDYYFPPQKTCLICGDEASGCHYGALTCGSCKVFFKRAAEGKQKYLCASRNDCTIDKFRRKNCPSCRLRKCYEAGMTLGARKLKKLGNLKLQEEGEASSTTSPTEETTQKLTVSHIEGYECQPIFLNVLEAIEPGVVCAGHDNNQPDSFAALLSSLNELGERQLVHVVKWAKALPGFRNLHVDDQMAVIQYSWMGLMVFAMGWRSFTNVNSRMLYFAPDLVFNEYRMHKSRMYSQCVRMRHLSQEFGWLQITPQEFLCMKALLLFSIIPVDGLKNQKFFDELRMNYIKELDRIIACKRKNPTSCSRRFYQLTKLLDSVQPIARELHQFTFDLLIKSHMVSVDFPEMMAEIISVQVPKILSGKVKPIYFHTQ
partner: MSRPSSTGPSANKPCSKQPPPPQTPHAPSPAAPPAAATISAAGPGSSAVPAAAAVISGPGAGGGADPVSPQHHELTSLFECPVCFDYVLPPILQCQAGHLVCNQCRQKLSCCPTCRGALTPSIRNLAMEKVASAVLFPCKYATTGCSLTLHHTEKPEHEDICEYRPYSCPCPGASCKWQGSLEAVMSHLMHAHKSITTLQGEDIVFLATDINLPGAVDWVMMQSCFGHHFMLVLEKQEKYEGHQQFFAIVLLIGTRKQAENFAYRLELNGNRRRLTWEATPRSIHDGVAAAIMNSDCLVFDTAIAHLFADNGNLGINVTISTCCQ

Variants of: B1
Conditions: with siah2_mouse Siah2, Q06986

Row | Variant | effect of a mutation on the interaction
1 | R727L | decreasing interaction
2 | V731M | decreasing interaction
3 | F755L | decreasing interaction
4 | L702H | decreasing interaction
5 | V716M | decreasing interaction

More lines, now with the values ahead:

Row | effect of a mutation on the interaction | Variant
6 | decreasing interaction | T878A
7 | decreasing interaction | H875Y
8 | decreasing interaction | Q799E
